For data set [1], the target named is c-Src SH2. The data set can be described thus: SH2 binding enrichment of the phosphorylated peptide, bacterial display (enrichment ratio); higher = better substrate or ligand; peptides without Tyr show the background.
For data set [2], the target named is SHP2-C SH2. The description is as above.
The target of data set [3] is Grb2 SH2 (UniProt P62993). The description is as above.
Data set [4] addresses EPHB1 (UniProt P54762). The data set can be described thus: phosphorylation enrichment, bacterial display (enrichment ratio); higher = better substrate or ligand; peptides without Tyr show the background.
The target of data set [5] is FGFR1 (UniProt P11362). The description is as above.
Chain of FGFR1 (P11362 whole entry, looked up): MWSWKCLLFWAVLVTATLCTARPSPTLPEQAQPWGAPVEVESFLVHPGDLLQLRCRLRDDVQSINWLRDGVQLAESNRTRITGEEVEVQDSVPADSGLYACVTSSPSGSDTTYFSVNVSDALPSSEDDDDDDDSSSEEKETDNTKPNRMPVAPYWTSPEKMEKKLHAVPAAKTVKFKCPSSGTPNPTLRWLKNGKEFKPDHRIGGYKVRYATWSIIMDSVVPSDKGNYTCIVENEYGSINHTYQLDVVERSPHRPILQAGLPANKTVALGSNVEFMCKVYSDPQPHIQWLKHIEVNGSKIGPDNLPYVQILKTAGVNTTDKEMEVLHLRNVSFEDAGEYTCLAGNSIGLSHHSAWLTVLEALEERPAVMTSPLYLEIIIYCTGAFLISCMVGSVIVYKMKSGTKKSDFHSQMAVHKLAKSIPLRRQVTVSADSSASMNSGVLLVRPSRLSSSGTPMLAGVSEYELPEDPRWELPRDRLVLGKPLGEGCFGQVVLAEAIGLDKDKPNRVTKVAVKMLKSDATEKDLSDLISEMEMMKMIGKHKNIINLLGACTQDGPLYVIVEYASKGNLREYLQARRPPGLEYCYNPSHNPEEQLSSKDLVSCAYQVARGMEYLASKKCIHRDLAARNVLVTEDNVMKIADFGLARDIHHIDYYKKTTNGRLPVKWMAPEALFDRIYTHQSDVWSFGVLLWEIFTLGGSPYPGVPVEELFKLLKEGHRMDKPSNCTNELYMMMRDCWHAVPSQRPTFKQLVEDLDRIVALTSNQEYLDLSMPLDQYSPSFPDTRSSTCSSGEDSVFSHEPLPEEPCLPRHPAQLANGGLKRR
Data set [6] concerns the target FGFR3 (UniProt P22607). The data set is described as above.
For data set [7], the system named is c-Src. Described as above.
Data set [8] concerns c-Abl (mouse). The description is as above.
Data set [9] deals with EPHB2 (UniProt P29323). The description is as above.
In data set [10] the target is Fyn (UniProt P06241). Described as above.
Data set [11] concerns Fer (mouse). The data set is described as above.
In data set [12] the target is Jak2 (UniProt O60674). The data set is described as above.
The target in data set [13] is MERTK (UniProt Q12866). The data set is described as above.
Chain of MERTK (Q12866 whole entry, looked up): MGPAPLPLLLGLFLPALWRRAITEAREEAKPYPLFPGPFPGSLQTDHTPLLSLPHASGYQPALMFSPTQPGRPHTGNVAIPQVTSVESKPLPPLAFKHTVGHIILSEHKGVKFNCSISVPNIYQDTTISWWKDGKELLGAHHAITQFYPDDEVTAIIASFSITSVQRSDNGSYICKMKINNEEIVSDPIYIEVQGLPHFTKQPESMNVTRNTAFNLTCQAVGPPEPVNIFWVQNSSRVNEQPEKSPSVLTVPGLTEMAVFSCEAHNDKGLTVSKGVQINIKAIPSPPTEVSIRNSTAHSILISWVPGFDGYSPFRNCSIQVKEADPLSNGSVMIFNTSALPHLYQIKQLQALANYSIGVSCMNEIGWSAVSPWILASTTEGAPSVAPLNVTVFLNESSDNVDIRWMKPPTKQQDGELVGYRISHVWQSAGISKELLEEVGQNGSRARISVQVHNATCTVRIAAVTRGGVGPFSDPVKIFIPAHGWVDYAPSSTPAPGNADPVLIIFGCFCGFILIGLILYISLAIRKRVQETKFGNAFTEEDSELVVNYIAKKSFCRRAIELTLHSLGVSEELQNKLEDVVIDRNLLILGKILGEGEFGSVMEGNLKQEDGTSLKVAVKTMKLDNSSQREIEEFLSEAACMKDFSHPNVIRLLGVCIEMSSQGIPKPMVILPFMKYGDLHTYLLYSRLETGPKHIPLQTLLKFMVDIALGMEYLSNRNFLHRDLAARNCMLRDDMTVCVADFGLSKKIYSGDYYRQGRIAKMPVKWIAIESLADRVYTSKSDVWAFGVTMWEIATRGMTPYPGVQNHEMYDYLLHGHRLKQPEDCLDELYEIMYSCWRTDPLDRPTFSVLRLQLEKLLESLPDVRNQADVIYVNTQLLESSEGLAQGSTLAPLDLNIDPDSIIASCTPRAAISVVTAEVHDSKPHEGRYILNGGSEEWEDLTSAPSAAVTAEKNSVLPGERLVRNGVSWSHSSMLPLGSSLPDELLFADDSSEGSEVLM
Data set [14] deals with AncSZ. Described as above.
The target in data set [15] is Hck (UniProt P08631). The data set is described as above.
Chain of Hck (P08631 whole entry, looked up): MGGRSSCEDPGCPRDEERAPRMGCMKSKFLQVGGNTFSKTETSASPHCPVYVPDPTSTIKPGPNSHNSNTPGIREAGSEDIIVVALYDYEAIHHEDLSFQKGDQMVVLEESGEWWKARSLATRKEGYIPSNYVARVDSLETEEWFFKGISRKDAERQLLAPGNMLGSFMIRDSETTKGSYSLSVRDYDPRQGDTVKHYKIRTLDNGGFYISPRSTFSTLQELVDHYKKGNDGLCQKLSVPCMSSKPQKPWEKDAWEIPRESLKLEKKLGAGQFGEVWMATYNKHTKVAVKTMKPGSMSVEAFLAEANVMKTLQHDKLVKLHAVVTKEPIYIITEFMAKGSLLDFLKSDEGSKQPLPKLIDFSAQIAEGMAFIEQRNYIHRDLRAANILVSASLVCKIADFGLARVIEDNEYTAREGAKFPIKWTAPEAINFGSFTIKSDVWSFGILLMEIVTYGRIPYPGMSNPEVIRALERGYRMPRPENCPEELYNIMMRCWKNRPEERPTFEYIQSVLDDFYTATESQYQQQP
The target in data set [16] is Fes (UniProt P07332). Described as above.
Chain of Fes (P07332 whole entry, looked up, the tested form may be a part): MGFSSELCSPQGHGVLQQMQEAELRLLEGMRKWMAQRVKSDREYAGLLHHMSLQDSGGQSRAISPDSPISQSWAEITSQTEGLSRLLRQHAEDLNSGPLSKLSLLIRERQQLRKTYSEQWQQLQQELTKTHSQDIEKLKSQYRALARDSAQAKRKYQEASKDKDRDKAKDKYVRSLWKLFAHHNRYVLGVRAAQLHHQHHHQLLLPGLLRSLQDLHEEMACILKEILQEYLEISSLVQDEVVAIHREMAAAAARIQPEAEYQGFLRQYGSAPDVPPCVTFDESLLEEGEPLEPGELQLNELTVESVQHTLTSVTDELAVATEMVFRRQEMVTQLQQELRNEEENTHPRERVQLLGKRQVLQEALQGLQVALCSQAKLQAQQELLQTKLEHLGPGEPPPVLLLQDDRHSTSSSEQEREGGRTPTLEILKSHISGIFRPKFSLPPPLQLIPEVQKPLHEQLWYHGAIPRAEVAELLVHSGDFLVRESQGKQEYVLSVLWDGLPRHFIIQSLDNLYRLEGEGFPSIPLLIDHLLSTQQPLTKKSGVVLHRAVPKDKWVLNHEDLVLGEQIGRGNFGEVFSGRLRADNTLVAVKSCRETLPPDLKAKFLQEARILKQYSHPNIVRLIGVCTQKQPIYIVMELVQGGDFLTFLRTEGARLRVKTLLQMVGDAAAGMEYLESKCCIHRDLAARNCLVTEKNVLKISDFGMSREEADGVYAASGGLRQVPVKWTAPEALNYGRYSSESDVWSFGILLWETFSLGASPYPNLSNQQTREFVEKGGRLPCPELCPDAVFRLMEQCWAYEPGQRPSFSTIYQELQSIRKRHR
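For SH2 binding enrichment of the phosphorylated peptide, bacterial display in this document: peptide library displayed on the E. coli surface as eCPX fusions, selected cells deep-sequenced, score is each peptide's frequency after selection divided by its frequency in the input.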
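For phosphorylation enrichment, bacterial display in this document: 11-residue human phosphosite peptides and single-mutation variants displayed on the E. coli surface, counted by deep sequencing, each peptide's frequency after selection divided by its frequency in the unselected input library; frequency after pTyr selection over input frequency; kinase dosed for 20-30% of maximal phosphorylation in three min.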

Chain of FGFR3 (P22607 whole entry, looked up): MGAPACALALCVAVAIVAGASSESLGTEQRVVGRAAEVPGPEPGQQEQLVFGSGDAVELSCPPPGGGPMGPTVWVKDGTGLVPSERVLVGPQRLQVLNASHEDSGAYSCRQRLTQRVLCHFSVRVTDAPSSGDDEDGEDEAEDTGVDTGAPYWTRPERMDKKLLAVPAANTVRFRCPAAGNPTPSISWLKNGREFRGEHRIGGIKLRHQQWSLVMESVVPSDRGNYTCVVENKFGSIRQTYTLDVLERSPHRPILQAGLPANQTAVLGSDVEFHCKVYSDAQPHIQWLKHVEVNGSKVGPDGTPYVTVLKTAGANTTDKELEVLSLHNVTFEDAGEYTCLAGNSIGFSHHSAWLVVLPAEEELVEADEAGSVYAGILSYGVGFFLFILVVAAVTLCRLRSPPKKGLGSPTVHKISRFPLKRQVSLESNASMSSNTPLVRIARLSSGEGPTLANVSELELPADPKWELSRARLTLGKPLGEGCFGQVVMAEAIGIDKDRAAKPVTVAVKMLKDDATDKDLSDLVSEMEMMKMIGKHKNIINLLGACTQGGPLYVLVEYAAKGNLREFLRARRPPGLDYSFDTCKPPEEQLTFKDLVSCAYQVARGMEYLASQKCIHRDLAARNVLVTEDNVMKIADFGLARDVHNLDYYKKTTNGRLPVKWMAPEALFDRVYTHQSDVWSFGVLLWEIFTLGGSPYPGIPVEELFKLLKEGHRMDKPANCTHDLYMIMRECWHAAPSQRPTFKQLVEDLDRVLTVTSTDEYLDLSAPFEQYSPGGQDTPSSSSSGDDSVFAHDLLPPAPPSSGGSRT
Chain of EPHB1 (P54762 whole entry, looked up): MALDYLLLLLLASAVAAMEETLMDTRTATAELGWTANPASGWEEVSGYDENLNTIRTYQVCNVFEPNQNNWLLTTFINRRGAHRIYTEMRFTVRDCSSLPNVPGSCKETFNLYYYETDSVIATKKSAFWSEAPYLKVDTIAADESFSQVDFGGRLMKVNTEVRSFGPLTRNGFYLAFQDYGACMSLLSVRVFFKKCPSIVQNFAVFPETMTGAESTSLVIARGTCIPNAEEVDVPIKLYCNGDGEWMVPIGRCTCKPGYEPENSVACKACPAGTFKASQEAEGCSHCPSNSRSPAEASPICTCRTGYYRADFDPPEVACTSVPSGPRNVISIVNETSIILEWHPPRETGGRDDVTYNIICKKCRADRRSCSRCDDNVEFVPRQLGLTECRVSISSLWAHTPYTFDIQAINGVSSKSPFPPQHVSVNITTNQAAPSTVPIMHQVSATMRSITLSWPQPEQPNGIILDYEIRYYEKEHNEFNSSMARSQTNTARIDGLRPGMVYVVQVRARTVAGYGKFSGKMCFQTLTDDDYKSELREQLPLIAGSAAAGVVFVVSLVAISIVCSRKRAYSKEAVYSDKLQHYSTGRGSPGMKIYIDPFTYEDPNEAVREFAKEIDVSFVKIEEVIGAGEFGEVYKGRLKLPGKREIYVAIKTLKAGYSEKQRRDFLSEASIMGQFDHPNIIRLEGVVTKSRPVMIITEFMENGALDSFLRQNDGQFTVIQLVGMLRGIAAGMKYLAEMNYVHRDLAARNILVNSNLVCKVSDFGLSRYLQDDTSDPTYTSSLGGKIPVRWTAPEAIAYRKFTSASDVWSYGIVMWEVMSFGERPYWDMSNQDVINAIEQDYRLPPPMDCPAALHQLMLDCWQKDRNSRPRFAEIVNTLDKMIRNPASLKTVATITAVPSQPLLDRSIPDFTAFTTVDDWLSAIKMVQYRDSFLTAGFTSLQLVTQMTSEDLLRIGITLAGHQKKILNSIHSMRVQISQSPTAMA

Consider SSTASYFKAPG [RFX2_Y108_E110K], for which the SH2 binding enrichment in data set [1] is 0.608; in [2] it was 0.885; in [3], 0.891. Also, the phosphorylation enrichment in data set [4] was found to be 0.471; in data set [5] it was 0.548; in [6], 0.474; in [7], 0.394; in [8], 0.418; in data set [9], 0.394. Moreover, the phosphorylation enrichment in data set [10] worked out at 0.4; in data set [11], 0.339; in [12], 0.53; in data set [13], 0.415; in data set [14], 0.598; in data set [15], 0.431. The phosphorylation enrichment in data set [16] is 0.619.
With SSVKLYRVYCD [FGB_Y266_P265L], the results for the SH2 binding enrichment in [1], in [2] and in [3] were 0.606, 0.818 and 0.893, respectively. Besides, the phosphorylation enrichment was 0.618 in data set [4]; 0.459 in data set [5]; 0.728 in data set [6]; 0.525 in data set [7]; 0.718 in data set [8]; 0.634 in data set [9]. The phosphorylation enrichment was 0.479 in [10]; 0.531 in data set [11]; 0.955 in [12]; 0.459 in data set [13]; 1.06 in data set [14]; 0.603 in [15]. Also, in data set [16], the phosphorylation enrichment was 1.22.
STSYDYCRVPM [BST2_Y8]: the SH2 binding enrichment in [1] was 1.54; in [2], 0.937; in data set [3] it was 0.858. Further, the phosphorylation enrichment in data set [4] came out at 11.7; in data set [5], 7.46; in data set [6], 5.34; in [7], 1.13; in data set [8], 1.11; in [9] it was 10.3. The phosphorylation enrichment worked out at 0.711 in data set [10]; 4.37 in data set [11]; 2.55 in data set [12]; 3.24 in data set [13]; 3.77 in [14]; 2.22 in data set [15]. Besides, the phosphorylation enrichment in data set [16] is 0.892.
Take STTSDYQWDVS [MTDH_Y364]: the SH2 binding enrichment in data set [1] came to 0.449; in data set [2], 0.612; in [3] it was 0.921. The phosphorylation enrichment turned out to be 0.741 in data set [4]; 0.659 in [5]; 0.865 in data set [6]; 0.407 in data set [7]; 0.782 in data set [8]; 0.615 in data set [9]. For the same sequence, the phosphorylation enrichment amounted to 0.54 in [10]; 0.476 in data set [11]; 1.05 in data set [12]; 0.387 in data set [13]; 1.23 in data set [14]; 0.508 in data set [15]. In addition, in data set [16], the phosphorylation enrichment was 1.22.
As to SVDRDYVLKSA [HTATIP2_Y111_R106S], the figures for the SH2 binding enrichment in [1], in data set [2] and in data set [3] were 0.387, 0.927 and 0.74, respectively. Further, the phosphorylation enrichment came to 0.546 in data set [4]; 0.487 in [5]; 0.54 in data set [6]; 0.426 in data set [7]; 0.699 in data set [8]; 0.403 in [9]. Moreover, the phosphorylation enrichment amounted to 0.439 in data set [10]; 0.403 in data set [11]; 0.571 in [12]; 0.4 in data set [13]; 0.66 in [14]; 0.399 in [15]. For the same sequence, in data set [16], the phosphorylation enrichment came out at 0.755.
As to SVTCTFSPALN [TP53_Y126_Y126F], the figures for the SH2 binding enrichment in data set [1], in [2] and in data set [3] were 0.473, 0.494 and 0.627, respectively. Moreover, the phosphorylation enrichment in [4] was 0.845; in [5] it was 0.602; in data set [6] it was 1.03; in [7], 0.541; in data set [8], 1.19; in [9] it was 0.675. The phosphorylation enrichment in data set [10] came out at 0.562; in [11], 0.673; in data set [12], 1.74; in data set [13] it was 0.515; in data set [14], 2.01; in data set [15], 0.621. In data set [16], the phosphorylation enrichment came to 1.89.
As for SVTCTSSPALN [TP53_Y126_Y126S], the SH2 binding enrichment in data set [1] amounted to 0.482; in data set [2], 0.603; in data set [3] it was 0.767. Besides, the phosphorylation enrichment was determined as 0.626 in data set [4]; 0.476 in [5]; 0.863 in [6]; 0.47 in [7]; 0.856 in [8]; 0.675 in [9]. Also, the phosphorylation enrichment amounted to 0.562 in [10]; 0.538 in data set [11]; 1.18 in [12]; 0.436 in data set [13]; 1.3 in data set [14]; 0.526 in data set [15]. Moreover, in data set [16], the phosphorylation enrichment came to 1.34.
With SVTCTYSPAIN [TP53_Y126_L130I], the SH2 binding enrichment in [1] was determined as 0.435; in data set [2], 0.5; in [3], 0.817. Further, the phosphorylation enrichment in data set [4] stood at 1; in [5], 0.702; in [6] it was 1.1; in data set [7], 0.684; in [8], 1.08; in data set [9], 0.735. Further, the phosphorylation enrichment came out at 0.615 in data set [10]; 0.743 in [11]; 1.37 in data set [12]; 0.466 in data set [13]; 1.5 in data set [14]; 0.749 in data set [15]. Besides, in data set [16], the phosphorylation enrichment was 1.83.
SVTCTYSPALI [TP53_Y126_N131I]: the SH2 binding enrichment in data set [1] stood at 0.349; in data set [2], 0.663; in [3], 0.659. The phosphorylation enrichment was 0.906 in [4]; 0.534 in data set [5]; 0.954 in [6]; 0.817 in [7]; 1.13 in data set [8]; 0.779 in [9]. Moreover, the phosphorylation enrichment amounted to 0.646 in [10]; 1.09 in data set [11]; 1.52 in data set [12]; 0.602 in data set [13]; 1.64 in [14]; 0.804 in [15]. In data set [16], the phosphorylation enrichment is 1.8.
